Measured values taken from PMC6411837.
Blank lines part the entries; values can stand above or below the substance they belong to.

Assays:
[1] = test system: eIF2 with eIF2beta-F217A/Q221A;eIF1 (WT);eIF1A (WT);40S ribosomal subunit (Saccharomyces cerevisiae (yeast);Saccharomyces cerevisiae (yeast);Saccharomyces cerevisiae? (yeast);Saccharomyces cerevisiae (strain YAS2488)); assay: EMSA kinetics; settings: aminoacylated with Met; 30 mM HEPES-KOH pH 7.4, 100 mM potassium acetate, 3 mM magnesium acetate, 2 mM DTT, 26 C; GDPNP; native gel shift
[2] = test system: eIF2 (WT), GDPNP-bound;eIF1-Q31A/F108A;eIF1A (WT);40S ribosomal subunit (Saccharomyces cerevisiae (yeast);Saccharomyces cerevisiae (yeast);Saccharomyces cerevisiae? (yeast);Saccharomyces cerevisiae (strain YAS2488)); assay: EMSA kinetics; settings: aminoacylated with Met, 30 mM HEPES-KOH pH 7.4, 100 mM potassium acetate, 3 mM magnesium acetate, 2 mM DTT, 26 C, native gel shift
[3] = target: ternary complex (TC) of WT eIF2, GDPNP and Met-tRNAi, P20459;P09064;P32481; assay: TC dissociation kinetics, EMSA
[4] = test system: eIF2 with eIF2beta-E189R;eIF1 (WT);eIF1A (WT);40S ribosomal subunit (Saccharomyces cerevisiae (yeast);Saccharomyces cerevisiae (yeast);Saccharomyces cerevisiae? (yeast);Saccharomyces cerevisiae (strain YAS2488)); assay: EMSA kinetics; settings: aminoacylated with Met; 30 mM HEPES-KOH pH 7.4, 100 mM potassium acetate, 3 mM magnesium acetate, 2 mM DTT, 26 C; GDPNP; native gel shift
[5] = target: 40S·eIF1·eIF1A·mRNA complex with WT eIF1, P32911;P38912; assay: TC binding kinetics (kobs versus [40S], as in Figure 6A–C); settings: three independent experiments

Substance: Met-tRNAi on 40S with mRNA(AUG)
binding signal (fold decrease in kon vs WT eIF2) [1]: 1.5
binding signal (fold decrease in kon vs WT eIF1) [2]: 2

Substance: Met-tRNAi on 40S with mRNA(UUG)
binding signal (fold decrease in koff vs WT eIF2) [4]: 2
binding signal (fold decrease in kon vs WT eIF2) [1]: 1.5

Substance: ternary complex (TC) of WT eIF2, GDPNP and Met-tRNAi (from UniProt P20459;P09064;P32481) eIF2β:S202A; eIF2β:K214A
kon ([5]; mRNA(AUG)): 4.11 s⁻¹
kon ([5]; mRNA(UUG)): 2.76 s⁻¹

The next lines start with the values.

koff ([3]; mRNA(UUG), n = 4 (WT n = 5)): 3.33e-05 s⁻¹
Substance: 40S·eIF1·eIF1A·mRNA complex with WT eIF1 (from UniProt P32911;P38912) eIF1:Q31E

koff ([3]; mRNA(AUG), n = 3 (WT n = 5)): 5e-05 s⁻¹
koff ([3]; mRNA(UUG), n = 3 (WT n = 5)): 7.5e-05 s⁻¹
Substance: 40S·eIF1·eIF1A·mRNA complex with WT eIF1 (from UniProt P32911;P38912) eIF1:F108D
